For this data set, the target named is alpha thrombin (Homo sapiens, UniProt P00734;P00734 P00734:328-363,P00734:364-622). Nature of the data set: MST; 20 mM HEPES pH 7.4, 150 mM NaCl, 2 mM CaCl2, 0.05% Tween; 10 nM thrombin.

As usually defined, the Kd is the equilibrium constant for the complex coming apart. For GGTTGGTGTGGTTGG (structured_DNA) [HD1], the Kd is 5.4 nM.

Values taken from patent US20250049935, “BOTTLEBRUSH CONJUGATES FOR USE AS OLIGONUCLEOTIDE ENHANCERS” (Northeastern University, published 2025).
